Legend:
human IL-6 [1] = biological target: T1, human IL-6 (human, UniProt P05231 30-212); experiment: panning and screening on IL-6
T1 construct: the protein used was bought recombinant human IL-6 (R&D Systems), in part biotinylated; also called rhIL-6; hIL-6

human IL-6 [2] = biological target: T1, human IL-6; experiment: ELISA on IL-6 (also TF1 cell assay)

Binder | binding result (human IL-6 [1]) | binding result (human IL-6 [2])
CLPSQFQCGSGYCISQRWVCDGEHDCEDSSDEANCAGSVPT (designed binder) [SEQ ID NO 538] | binds | 
CLPSQFQCGSGWCISQRWVCDGENDCEDSSDEANCAGSVPT (designed binder) [SEQ ID NO 544] | binds | 
SEQ ID NO 645 (designed binder) CGANEFQCGSGYCLPVGWVCDGENDCEDNSDEKGCPPHTCLPNQFQCRNGRCIPLPWLCDGDNDCEDDSDATNCTPRT | binds | 
SEQ ID NO 714 (designed binder) CPPSQFTCSNGNCLSPTLLCDGVNDCVDDSDETSCAASVHTCLPSQFQCGSGYCISQRWVCDGENDCEDSSDEANCAGSVPT | binds | 
SEQ ID NO 675 (designed binder) CRSSEFRCDSGHCLPLPWVCDGDDDCEDGSDEAQDCEPRTCVPSQFQCGSGYCISQRWVCDGENDCEDSSDEANCAGSVPT | binds | 
SEQ ID NO 665 (designed binder) CRASQFQCGSGYCIPRPWLCDGVNDCEDGSDEADCQTRTCVPSQFQCGSGYCISQRWVCDGENDCEDSSDEANCAGSVPT | binds | 
SEQ ID NO 787 (designed binder) CLPNEFTCDSGNCVPQALGCDGDNDCEDNSDESPALCAAPAHTCQANEFTCSSGNCLSPALLCDGVDDCGDNSDETYCASPAPTCLPSQFQCGSGYCISQRWVCDGENDCEDSSDEANCAGSVPT | binds | 
SEQ ID NO 700 (designed binder) CRSNQFQCGSGYCIPVKWLCDGENDCEDSSDEESCPARTCPPSEFRCKGSGKCVPQHWLCDGVNDCEDDSDEKSCPPPT | binds | 
CQANEFTCSSGNCLSPALLCDGVDDCGDNSDETNCASPAPT (designed binder) [SEQ ID NO 511] | binds | 
CEANELRCSSGRCLSVHWLCDGVDDCEDSSDEAGCPPRT (designed binder) [SEQ ID NO 600] | binds | 
SEQ ID NO 730 (designed binder) CAPSQFRCESGQCLPANWRCDGENDCQDGSDESPAICEGTAPTCLPSQFQCGSGYCISQRWVCDGENDCEDSSDEANCAGSVPT | binds | 
SEQ ID NO 680 (designed binder) CPADEFPCKNGKCLPLPWVCDGDNDCADNSDETDCTATAPTCRSNQFQCGSGYCISQRWVCDGENDCEDSSDEANCAGSVPT | binds | 
SEQ ID NO 629 (designed binder) CLSSQFQCSNGNCIPAAWLCDSDNDCGDDSDETSCPAPTCPSSQFQCSSGWCIPEDWRCDGVPDCGDGSDEASDHCGDSHILPFSTPGPST | binds | 
SEQ ID NO 671 (designed binder) CQSSEFTCSSGRCLSAGWLCDGVNDCRDDSDEESCTAPVPTCVPSQFQCGSGYCISQRWVCDGENDCEDSSDEANCAGSVPT | binds | 
SEQ ID NO 720 (designed binder) CLASQFRCGNGSCLSQTLLCDGVNDCADNSDEVSCPPPTCLPSQFQCGSGYCISQRWVCDGENDCEDSSDEANCAGSVPT | binds | 
SEQ ID NO 716 (designed binder) CPPGEFPCSSGHCLSQALRCDGVPDCEDDSDETGCPPPTCLPSQFQCGSGYCISQRWVCDGENDCEDSSDEANCAGSVPT | binds | 
SEQ ID NO 735 (designed binder) CAANEFRCRSTNTCIPQQWLCDGVNDCQDDSDEKSCRTPAPTCLPSQFQCGSGYCISQRWVCDGENDCEDSSDEANCAGSVPT | binds | 
SEQ ID NO 672 (designed binder) CQPGQFQCHDYGRCVSQNWLCDGDPDCLDSSDEANCQPPTCVPSQFQCGSGYCISQRWVCDGENDCEDSSDEANCAGSVPT | binds | 
SEQ ID NO 715 (designed binder) CLADQFKCHNTNICIPGRLGCDGDPDCEDDSDEKGCPPHTCLPSQFQCGSGYCISQRWVCDGENDCEDSSDEANCAGSVPT | binds | 
SEQ ID NO 764 (designed binder) CEAGEFRCRNGSCIPEAWGCDGVNDYLDNSDETNCPAHTCLSSEFQCGSGYCISQRWVCDGENDCEDSSDEANCAGSVPT | binds | 
SEQ ID NO 669 (designed binder) CEASQFPCRNSERCVPPHLLCDGVNDCADGSDEIGCPPHTCVPSQFQCGSGYCISQRWVCDGENDCEDSSDEANCAGSVPT | binds | 

Binder | binding result (human IL-6 [1]) | binding result (human IL-6 [2])
CLPSEFQCRDSKICLSADWLCDGVNDCVDGSDEAGCPPRT (designed binder) [SEQ ID NO 599] | binds | 
SEQ ID NO 754 (designed binder) CPPSQFPCNSGNCVSAAWVCDGVDDCGDDSDESLAICPTSTCLPDQFQCGSGYCLPQRWVCDGVDDCEDSSDEKGCTPHT | binds | 
SEQ ID NO 768 (designed binder) CASNEFPCSNGNCIPGPLRCDGVNDCEDNSDESPLWPLHTCLPSQFQCGSGYCISQRWVCDGENDCEDSSDEANCAGSVPT | binds | 
SEQ ID NO 689 (designed binder) CRASQFQCGSGYCIPRPWLCDGVNDCEDSSDEANCAGSVPTCQPSQFRCRSGHCISGALGCDGEPDCGDGSDETGCRASAHT | binds | 
CPPDEFQCNSGSCLSQPLLCDGEDDCGDGSDEESCIAAEHT (designed binder) [SEQ ID NO 575] | binds | 
SEQ ID NO 681 (designed binder) CGSDEFLCNNGKCIPPTWGCDGVNDCQDNSDEAPALCPPPTCRSNQFQCGSGYCIPQRWVCDGVDDCEDSSDEKGCTPHT | binds | 
CPSDEFTCDSGRCVSLNWLCDGVNDCGDNSDEAGCPTRT (designed binder) [SEQ ID NO 603] | binds | 
SEQ ID NO 784 (designed binder) CLSSQFQCDNGNCVPQQWVCDGDNDCLDDSDETSCSAPASEPPGSLCPASQFPCSSGHCVPLNWVCDGVNDCVDGSDEAGCPPRTCLPDQFQCGSGYCISQRWVCDGENDCEDSSDEANCAGSVPT | binds | 
SEQ ID NO 925 (designed binder) CLPDQFRCGNGQCMPLDWVCDGVNDCPDDSDEEGCPPRTCEPGQFQCGSGYCISQRWVCDGENDCEDGSDEATCAGSVPQCPSDEFRCRTGRCIPQAWRCDGVNDCVDNSDEECCKEHT |  | binds
SEQ ID NO 677 (designed binder) CRADQCQCNSGHCLSRNLRCDGEDDCADNSDEKSCSQDPEFHKVCLPDQFQCGSGYCLPQRWVCDGVDDCEDSSDEKGCTPHT | binds | 
SEQ ID NO 749 (designed binder) CGASEFRCDSGHCISPDWRCDGDNDCVDGSDEKSCEQRTCLPSQFQCGSGYCFSQRWVCDGENDCEDGSDEANCAGSVPT | binds | 
SEQ ID NO 745 (designed binder) CPPGEFKCNSGNCVSPTWGCDGVDDCGDDSDEASAICEAPEHTCLPSQFQCGSGYCISQRWVCDGENDCEDSSDEANCAGSVPT | binds | 
SEQ ID NO 712 (designed binder) CRSSQFRCSSGQCVSLGWVCDGVNDCPDSSDETGCPKRTCLPSQFQCGSGYCISQRWVCDGENDCEDSSDEANCAGSVPT | binds | 
SEQ ID NO 743 (designed binder) CVPSQFQCRNNGICIPQNWHCDGVPDCEDSSDEESCGTTVHTCLPSQFQCGSGYCISQRWVCDGENDCEDSSDEANCAGSVPT | binds | 
SEQ ID NO 725 (designed binder) CLANEFRCSSGQCIPARWLCDGVNDCVDDSDEKDCPARTCLPSQFQCGSGYCISQRWVCDGENDCEDSSDEANCAGSVPT | binds | 
SEQ ID NO 670 (designed binder) CPSNQFQCRNNGTCIPLPWLCDGVDDCGDDSDETSCTEPTCVPSQFQCGSGYCISQRWVCDGENDCEDSSDEANCAGSVPT | binds | 
SEQ ID NO 635 (designed binder) CAPSQFTCGNGNCVPRPWLCDGDNDCEDDSDETSCPPHTCLPDQFQCGSGYCLPQAWVCDGENDCEDGSDETNCPART | binds | 
SEQ ID NO 751 (designed binder) CLPSQFQCGSGYCISQRWVCDGENDCEDSSDEANCAGSVPTCLPSEFQCGNGRCLPLRLLCDGDDDCGDNSDEPLATCETSAPT | binds | 
SEQ ID NO 726 (designed binder) CLPGQFRCHSTDTCLPESWVCDGVNDCADDSDEASCPPHTCLPSQFQCGSGYCISQRWVCDGENDCEDSSDEANCAGSVPT | binds | 
SEQ ID NO 758 (designed binder) CRPSQFQCQNSSRCIPLGWRCDGDNDCEDGSDEKDCTATARTCLPDQFQCGSGYCLPQAWVCDGENDCEDGSDETNCPART | binds | 
SEQ ID NO 785 (designed binder) CQASEFPCDSGQCIPQPLGCDGDNDCADNSDEESCQPRTCPASQFPCSSGHCVPLNWVCDGVNDCVDGSDEAGCPPRTCLPDQFQCGSGYCISQRWVCDGENDCEDSSDEANCAGSVPT | binds | 
